Experiment: yeast display, Sf9 membrane polyspecificity reagent, FACS + sequencing; frameworks hold sequencing errors
Outline: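 Nanobodies from a synthetic yeast display library (Saccharomyces cerevisiae BJ5465), induced 36–48 hours with galactose, were stained 1 hour at 4 °C with 10% biotinylated, detergent-solubilized Sf9 membrane reagent, enriched on streptavidin microbeads, then FACS-sorted. Anti-HA (expression) and streptavidin (reagent binding) fluorescence set low and high (top ~1%) gates. Polyreactivity labels come from the gate of origin. Genes were colony-PCR amplified, MiSeq 2 × 250 sequenced and filtered by CDR length.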

| Sequence | polyreactivity (PSR sort gate) |
| --- | --- |
| QVQLVESGGGLVQAGGSLRLSCAASGSILYGYAMGWYRQAPGKERELYASITSDGSSNYADSVKGRFTISRDNAKNTVYFQMNSLKPEDTAVYYCAADVRLIWSASLTTSKYDYWGQGTQVTVSS | low polyreactivity |
| QVQLVESGGGLVQAGGSLRLSCAASGSIFRGYAMGWYRQAPEKERELVAAMSRRGGSTYYADSVKGRFTISRDNAKNTVYLQMNSLKPEDTAVYYCAADWLSWFHGYGMYYWGQGTQVTVSS | low polyreactivity |
| QVQLVESGGGLVQAGGTLRLSCAASGRTFNAYPMGWYRQAPGKERELVAAITSSGTSTYYADSVKGRFTISRDNAKNTVYLQMNSLKPEDTAVYYCAAPWGYWGQCTQVTVSS | low polyreactivity |
| QVQLVESGGGLVQAGGSLRLSCAASGITFYGYAMGWYRQAPGKERELVARITISGRTNYADYVKGRFTISRDNAKNTVYLQMNSLKPEDTAVYYCNAVYRGYYSGELDYWGQGTQVTVSS | high polyreactivity |
| QVQLVESGGGLVQAGGSLRLSCAASGLTFSYYAMGWYRQAPGKERELVAAISSSGGSTYYADSVKGRFTISRDYAKNTVYLQMTSLKPEDTAVYYCATAASPVRKRYDYWGQGTQVTVSS | high polyreactivity |
| QVQLVESCGGLVQPGGSLRLSCAASGSTFTRYGFGWYRQATGKEREMVAAITTSGSSTYYADSVKGRFTISRDNAKYTVYLQMNSLKPEETAVYYGAADWSSWGFDYWGQGTQVTVSS | low polyreactivity |
| QVQLVESGGGLVQAGGSLRLSCAAYGNIFDGNAMGWYRQAPGKERELVAAITGRGGGTYYADSVKGRFTISRDNAKNTVYLLMNSLKPEDTAVYYCNKYYYRGGMDYWGQGTQVNVSS | high polyreactivity |
| QVQLVESGGGLVQARGSLRLICAASVQIFRVYAMGWSRQAPGKEREFVAAMTYDGGNTYYADSVKGRFTISRDNAKNTVYLQMLSLKPEDTAVYYCAKDYGEWGQGTQVTVSS | low polyreactivity |
| QVQLVESGGGLVQAGGSLRLSCAASGSIFYTYAMGWYRQAPGKERELVAAITYSGGSTYYADSVKGRFTISRDNAKNTVYLQMNSLKPEDTAVYYCAAYVIPGLGAEYGYWGQGTQVTVSS | low polyreactivity |
| QVQLVESGGGLVQAGGSLRLSCAASGRIFYFNSMGWYRQAPGKEREFVAAISGSGGDTYYADSVKGRFTISRDIAKNTVYLQMNSLKPEDTAVYYCAAEVYTWGQGTQVTVSS | low polyreactivity |
| QVQLVESGGGLVQAGGSLRLSCAASGRIYWSYDMGWNRQAPVKERELVASITSDGSTNYADSVKGRFTISRDNAKNTVYLQMNSLKPEDTAVYYCAARPYKYDPFAQGDGGKYDYWGQGTQVTVSS | low polyreactivity |
| QVQLVESGGGLVQAGGSHRLSCAASGRTFYRNAMGWYRPAPGKERELVAAITSGGGTTYADSVKGRFTISRDNAKNTVYLQMNSLKPEDTAVYYCAKRYNGRFRLGYEYWGQGTQVTVSS | high polyreactivity |
| QVQLVESGGGLVQAGGSLRLSCAASGSIFAGNAMGWYRQAPGKEREFVAAITWSGGSTYYADSVKGRFTISRDNAKNTVYLQMNSLKPEDTAVYYCAARAYKRKTYYYWGQGTQVTVSS | high polyreactivity |
| QVQLVESGGGLVQAGGSLRLSCAASGFIFGWNAMGWYRQAPGKEREFVAAITSSGTSTYYADSVKGRFTISRDNAKNTVYLQMNSLKPEDTAVYYCATEGWPFYPARDYDYWGQGTQVTVSS | low polyreactivity |
| QVQLVESGGGLVQAGGSLRLSCAASGITFYSNAMGWYRQAPGKERELVAAISYRGGSTYYADSVKGRFTISRDNAKNTVYLQMNSLKPEDTAVYYCNKEVDWGWGRISYDSWGQGTQVTVSS | low polyreactivity |
| QVQLVESGGGLVQAGGSLRLSCAASGSTFYTYTMGWYRPGPGKEMELVAAISSSGGDTYYADSVKGRFTISRDNAKNTVYLQMNSLKPEDTAVYYCAALGAFPSLEFDYWGQGTQVTVSS | low polyreactivity |
| QVQLVESGGGLVQAGGSLRLSCAASGFIIDTYPMGCYRQAPGKERELVAAITRSGGSTYYADSVKGRFTISRDNAKNTVYLQMNSLKPEDTAVYYCAARQRYTRYDYWGQGTQVTVSW | high polyreactivity |

From the nanobody polyreactivity screen of Harvey et al. (2022)
